Data on 46 molecules can be found in patent US20120283184A1 (published 2012).

Test [1] has as its target T1, human vascular endothelial growth factor receptor-2 Fc chimera (KDR-Fc) (human, UniProt P35968 20-764).
T1 construct: range 1-764; also called human VEGFR-2; not shown: human IgG1 Fc
The experiment in a line: radioactive equilibrium binding, 1 nM KDR-Fc, % of input. Summed up: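 ³⁵S-Met-labelled fibronectin-based scaffold proteins, made by reticulocyte-lysate translation and Flag-purified, were held at 0.2 or 0.5 nM with 0–200 nM receptor-Fc for 1 h at 30 °C in buffer B. Complexes were captured on Protein A beads, washed and KOH-eluted. Bound fraction is eluted radioactivity as % of input, minus receptor-free background, fitted to one-site binding.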
T1 sequence (P35968 20-764 limits assumed, change not shown, form in doubt): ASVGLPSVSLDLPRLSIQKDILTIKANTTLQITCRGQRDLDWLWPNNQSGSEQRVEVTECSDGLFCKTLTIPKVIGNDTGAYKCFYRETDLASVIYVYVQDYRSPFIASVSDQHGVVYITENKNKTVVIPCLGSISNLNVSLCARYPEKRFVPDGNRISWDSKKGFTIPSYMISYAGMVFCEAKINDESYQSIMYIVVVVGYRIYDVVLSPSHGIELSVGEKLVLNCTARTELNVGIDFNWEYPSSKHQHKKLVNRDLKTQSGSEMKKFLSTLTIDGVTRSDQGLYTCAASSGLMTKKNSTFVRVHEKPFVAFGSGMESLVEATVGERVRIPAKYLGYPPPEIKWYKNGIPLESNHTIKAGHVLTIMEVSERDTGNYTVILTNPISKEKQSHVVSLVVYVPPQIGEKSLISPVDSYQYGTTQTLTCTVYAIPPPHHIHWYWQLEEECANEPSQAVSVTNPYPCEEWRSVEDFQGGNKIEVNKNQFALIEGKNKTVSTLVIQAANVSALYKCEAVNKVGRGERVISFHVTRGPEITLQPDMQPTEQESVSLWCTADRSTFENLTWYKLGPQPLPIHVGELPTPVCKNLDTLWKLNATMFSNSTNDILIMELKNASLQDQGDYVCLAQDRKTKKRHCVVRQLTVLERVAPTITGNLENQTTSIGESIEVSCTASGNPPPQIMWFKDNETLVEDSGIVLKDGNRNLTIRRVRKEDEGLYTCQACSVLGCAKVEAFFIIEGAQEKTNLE

Test [2] concerns the target T2, human vascular endothelial growth factor receptor-2 Fc chimera (KDR-Fc) (human, UniProt P35968 20-764).
T2 construct: range 1-764; Purchased from R&D Systems; also called hKDR; human VEGF-R2-Fc; not shown: human IgG1 Fc
As to the kind of experiment: radioactive equilibrium binding, 1 nM KDR-Fc. As to the method: To prepare ³⁵S-labeled binding proteins for analysis, mRNA was prepared as described above for RNA-protein fusion production but the linker ligation step was omitted. The mRNA was expressed using rabbit reticulocyte lysate translation kit (Ambion) in the presence of ³⁵S-labeled Met at 30° C. for 1 hour. Expressed protein was purified on M2-agarose Flag beads (Sigma) as described above. This procedure produced the encoded protein without the nucleic acid tail. In a direct binding assay, VEGF-R2-Fc fusions in concentrations ranging from 0 to 200 nM were added to a constant concentration of the purified protein (0.2 or 0.5 nM) and incubated at 30° C. for 1 hour in buffer B. The receptor-binder complexes were captured using Protein A magnetic beads for another 10 minutes at room temperature using a Kingfisher™ The beads were washed with six reaction volumes of buffer B. The protein was eluted from the beads with 100 μL of 0.1 M KOH. 50 μL of the reaction mixture and elution were dried onto a LumaPlate-96 (Packard) and the amount of ³⁵S on the plate was measured using a TopCount NXT instrument (Packard). The amount of fibronectin-based scaffold protein bound to the target was estimated as a percent of radioactivity eluted from Protein A magnetic beads compare to radioactivity in the reaction mixture. Nonspecific binding of fibronectin-based scaffold proteins to the beads was determined by measuring binding in the absence of KDR-Fc and represented less than 1-2% of the input. Specific binding was obtained through subtraction of nonspecific binding from total binding. Data was analyzed using the GraphPad Prizm software (GraphPad Software, Inc, San Diego, Calif.), fitted using a one site, non-linear binding equation.
T2 sequence (P35968 20-764 limits assumed, change not shown, form in doubt): as above

Changes are numbered by the printed parent chain.

B1: 3′G2 PR4 (designed binder)
chain: EVVAATPTSLLISWRHPHFPTRYYRITYGETGGNSPVQEFTVPLQPPTATISGLKPGVDYTITVYAVTLAQNGHELITPISINYRT
Regarding B1, the “Binding to 1 nM KDR, %” value in test [1] is 15%.

B2: 4′B7 PR4 (designed binder)
chain: B1 chain with L69V, G73N, I77L
In the case of B2, in test [1], the “Binding to 1 nM KDR, %” value amounted to 16%.

B3: 4′G12 PR4 (designed binder)
chain: B1 chain with L69V, Q71W, G73D, L76I, I77Y
In the case of B3, the “Binding to 1 nM KDR, %” value in test [1] was found to be 21%.

B4: 1′DelC6 PR4 (designed binder)
chain: B1 chain with L69V, G73E, I77L
notes: in vitro translated
Turning to B4, the “Binding to 1 nM KDR, %” value in test [2] came out at 12%.

B5: 3′H9 PR4 (designed binder)
chain: B1 chain with L69H, A70G, Q71P, N72Y, G73D, H74Q, E75V, I77L
On to B5, for which the “Binding to 1 nM KDR, %” value in test [1] was 24%.

B6: 4′B11 PR4 (designed binder)
chain: B1 chain with L69M, Q71H, G73D, I77L
As for B6, the “Binding to 1 nM KDR, %” value in test [1] stood at 25%.

B7: 3A8 PR3 (designed binder)
chain: B1 chain with L69E, Q71H, N72H, I77M, T78I
notes: in vitro translated
Consider B7, for which, in test [2], the “Binding to 1 nM KDR, %” value came out at 12%.

B8: 4C9 PR3 (designed binder)
chain: B1 chain with G73D, I77L
As for B8, in test [1], the “Binding to 1 nM KDR, %” value was 16%.

B9: 3′H3 PR4 (designed binder)
chain: B1 chain with A70G, Q71L, G73D, H74R, I77M
For B9, the “Binding to 1 nM KDR, %” value in test [1] was determined as 36%.

B10: 4′D8 PR4 (designed binder)
chain: B1 chain with I77Y
On to B10, for which, in test [1], the “Binding to 1 nM KDR, %” value amounted to 26%.

B11: 3′H8 PR4 (designed binder)
chain: B1 chain with L69V, A70G, Q71H, G73D, H74R
For the molecule B11, the “Binding to 1 nM KDR, %” value in test [1] was 20%.

B12: 4′C5 PR4 (designed binder)
chain: B1 chain with A70G, Q71L, G73D
As to B12, in test [1], the “Binding to 1 nM KDR, %” value came out at 27%.

B13: 3′G10 PR4 (designed binder)
chain: B1 chain with A70T, Q71H, G73D, I77L
For the molecule B13, the “Binding to 1 nM KDR, %” value in test [1] worked out at 30%.

B14: 4′D6 PR4 (designed binder)
chain: B1 chain with L69M, G73D, I77M
For the molecule B14, in test [1], the “Binding to 1 nM KDR, %” value was determined as 14%.

B15: 4F4 PR3 (designed binder)
chain: B1 chain with G73D, H74R
Regarding B15, the “Binding to 1 nM KDR, %” value in test [1] was 15%.

B16: 4′G4 PR4 (designed binder)
chain: B1 chain with L69V, G73D, H74R, I77L
For B16, in test [1], the “Binding to 1 nM KDR, %” value came out at 19%.

B17: 1′DelG11 PR4 (designed binder)
chain: B1 chain with E75V
notes: in vitro translated
As for B17, the “Binding to 1 nM KDR, %” value in test [2] came to 11%.

B18: 4′H12 PR4 (designed binder)
chain: B1 chain with L69V, Q71H, G73D, I77L
On to B18, for which the “Binding to 1 nM KDR, %” value in test [1] was determined as 17%.

B19: 1′DelD3 PR4 (designed binder)
chain: B1 chain with G73N
notes: in vitro translated
On to B19, for which, in test [2], the “Binding to 1 nM KDR, %” value came out at 12%.

B20: 4′H5 PR4 (designed binder)
chain: B1 chain with I77F
As to B20, the “Binding to 1 nM KDR, %” value in test [1] was 18%.

B21: 2′DelB10 PR4 (designed binder)
chain: B1 chain with L69V, A70T, Q71H, G73D, I77L
notes: in vitro translated
On to B21, for which, in test [2], the “Binding to 1 nM KDR, %” value was found to be 11%.

B22: 1′DelH9 PR4 (designed binder)
chain: B1 chain with L69V, A70G, G73D
notes: in vitro translated
For B22, the “Binding to 1 nM KDR, %” value in test [2] is 10%.

B23: 3′H1 PR4 (designed binder)
chain: B1 chain with L69F, G73D, E75Q, I77F
For the molecule B23, the “Binding to 1 nM KDR, %” value in test [1] turned out to be 22%.

B24: 3′G3 PR4 (designed binder)
chain: B1 chain with L69F, A70D, N72S, G73D, I77L
Turning to B24, the “Binding to 1 nM KDR, %” value in test [1] was 31%.

B25: 4′C9 PR4 (designed binder)
chain: B1 chain with A70G, Q71P, G73D, I77M
Take B25: the “Binding to 1 nM KDR, %” value in test [1] came to 29%.

B26: 3′G7 PR4 (designed binder)
chain: B1 chain with L69E, A70G, G73D, H74Q, E75L, I77F, T78I
With B26, the “Binding to 1 nM KDR, %” value in test [1] stood at 19%.

B27: 4′A5 PR4 (designed binder)
chain: B1 chain with G73D, I77L
For the molecule B27, the “Binding to 1 nM KDR, %” value in test [1] was 16%.

B28: 4′B8 PR4 (designed binder)
chain: B1 chain with L69V, G73D, E75K, I77F, T78I
Turning to B28, in test [1], the “Binding to 1 nM KDR, %” value is 20%.

B29: 1′DelC5 PR4 (designed binder)
chain: B1 chain with G73D, L76I, I77M
notes: in vitro translated
For B29, the “Binding to 1 nM KDR, %” value in test [2] amounted to 11%.

B30: 3′H11 PR4 (designed binder)
chain: B1 chain with Q71H, H74N, I77L
For B30, the “Binding to 1 nM KDR, %” value in test [1] came to 39%.

B31: 4B11 PR3 (designed binder)
chain: B1 chain with L69V, A70G, G73N
With B31, in test [1], the “Binding to 1 nM KDR, %” value came to 15%.

B32: 4H5 PR3 (designed binder)
chain: B1 chain with L69V
Regarding B32, the “Binding to 1 nM KDR, %” value in test [1] stood at 14%.

B33: 3′H10 PR4 (designed binder)
chain: B1 chain with L69W, Q71W, G73D, I77M
As for B33, the “Binding to 1 nM KDR, %” value in test [1] came out at 14%.

B34: 4′E7 PR4 (designed binder)
chain: B1 chain with L69W, G73D, I77L
Take B34: in test [1], the “Binding to 1 nM KDR, %” value turned out to be 17%.

B35: 1′DelA4 PR4 (designed binder)
chain: B1 chain with V64G, L69V, G73D, I77F
notes: in vitro translated
Turning to B35, the “Binding to 1 nM KDR, %” value in test [2] is 13%.

B36: 1′DelG9 PR4 (designed binder)
chain: B1 chain with L69V, N72S, G73D, I77M
notes: in vitro translated
Regarding B36, the “Binding to 1 nM KDR, %” value in test [2] worked out at 10%.

B37: 1′DelH7 PR4 (designed binder)
chain: B1 chain with L69V, A70G, G73D, H74Q, I77L
notes: in vitro translated
Take B37: the “Binding to 1 nM KDR, %” value in test [2] was 11%.

B38: 1′DelB10 PR4 (designed binder)
chain: B1 chain with L69V, Q71R, G73D, I77M
notes: in vitro translated
Regarding B38, in test [2], the “Binding to 1 nM KDR, %” value was 11%.

B39: 4′H7 PR4 (designed binder)
chain: B1 chain with Q71H, G73D, I77L
Regarding B39, the “Binding to 1 nM KDR, %” value in test [1] turned out to be 29%.

B40: 2′DelB11 PR4 (designed binder)
chain: B1 chain with L69V, A70G, G73D, I77M
notes: in vitro translated
As to B40, the “Binding to 1 nM KDR, %” value in test [2] was 11%.

B41: 4′B3 PR4 (designed binder)
chain: B1 chain with L69M, G73N, H74R, I77L
For the molecule B41, in test [1], the “Binding to 1 nM KDR, %” value stood at 42%.

B42: 2′DelB9 PR4 (designed binder)
chain: B1 chain with L69V, A70G, Q71P, N72T, G73D, I77L
notes: in vitro translated
Consider B42, for which the “Binding to 1 nM KDR, %” value in test [2] was determined as 11%.

B43: 2′E4-PR4 (designed binder)
chain: VSDVPRDLEVVAATPTSLLISWRHPHFPTRYYRITYGETGGNSPVQEFTVPLQPPTATISGLKPGVDYTITVYAVTVHWNGHELMTPISINYRT
As for B43, the “Binding to 1 nM KDR, %” value in test [1] was found to be 22%.

B44: 2′D6-PR4 (designed binder)
chain: B43 chain with H78T, W79H, E83P
With B44, in test [1], the “Binding to 1 nM KDR, %” value was found to be 22%.

B45: 2′H4-PR4 (designed binder)
chain: B43 chain with H78G, W79P, G81E, H82R, E83M
Turning to B45, the “Binding to 1 nM KDR, %” value in test [1] came to 17%.

B46: 2′C6-PR4 (designed binder)
chain: B43 chain with V77M, H78G, W79F, N80M, G81A, T86V
With B46, the “Binding to 1 nM KDR, %” value in test [1] was determined as 16%.
